Bridge positions count the residues as written; N and C are the ends. Square brackets hold non-standard residues; d marks the D form. Ends that are not written are not given here. GdDOTAGA = Gd(III)-DOTAGA chelate, amide-linked; Bip = N[C@@H](Cc1ccc(-c2ccccc2)cc1)C(=O)O
Tests used:
Experiment in all cases: dried collagen film in microtiter plate; unbound compound by ICP-MS (Gd); fit to 1 binding site
[1] = target: T1, Canine collagen (Native canine Collagen Type I and III protein, YO protein AB, cat#739) (canine, UniProt Q9XSJ7 158-1214; O46392 80-1119)
T1 construct: The bought preparation is a mixture of native canine collagen types I and III, not one defined trimer; It was gelled and dried as a film in microtiter wells; also called dog collagen
Description: (§1) Ice-cold 1×PBS pH 10.8 is added to the collagen solution for a final collagen concentration of 10 μM, pH 7.4. Collagen solutions are gelled and dried down in the wells of a 96 well microtiter plate (Corning Polystyrene Flat Bottom, cat#3641). 70 μl of 10 μM collagen is aliquoted into each well in every other lane in the plate (48 wells) and the plate is incubated at 37° C. for 18 hours to form a gel and evaporate to dryness. Ungelled collagen is removed by washing the collagen films with 200 μl 1×PBS pH 7.4 (four times, 15 min per wash). The thin collagen fibril film remains, coating the bottom of each well. After washing by PBS the plate is again dried at 37° C. for 2 hours and is stored at −20° C. The final well content of gelled collagen is measured by determination of hydroxyproline and is around 180 μg/ml.
(§2) a serial dilution of 0.2 μM-30 μM of the peptide chelate is prepared in PBS, pH 7.4 (˜300 μL of solution for each concentration). 90 μl of each concentration is also reserved in a HPLC glass vial as a sample to measure the total concentration. 140 μL of each dilution of peptide chelate is added to wells containing and non-containing collagen (control for nonspecific plastic binging). The plate is then incubated on a shaker table (300 rpm) for 2 hours at room temperature to allow the compound to bind. After 2 hours the supernatant from each well (with or without collagen) is transferred to an HPLC glass vial. The concentration of free, unbound compound in the sample supernatants and the concentration of compound in the reserved (total) sample are determined by ICP-MS (Agilent 7500, gadolinium concentration). The concentration of compound bound to collagen is determined as [bound]=[total]−[unbound].
(§3) The binding of compounds to human, rat and dog collagen (5 μM) was measured over the concentration range 0.2-5 μM of Comp ID Nos.: 1-4. The binding data was fit to a model of 1 binding site.

[2] = target: T2, rat collagen (acid soluble, type I, rat tail, Millipore Inc, cat#08-115) (rat, UniProt P02454 152-1207; P02466 86-1125)
T2 construct: In the assay the collagen was gelled and dried as a fibril film in microtiter wells; also called rat collagen type I
Description: as §1, §2, §3

[3] = target: T3, human type I collagen (VitroCol solution, Advanced Biomatrix, cat#5007-A) (human, UniProt P02452 179-1192; P08123 91-1104, limits assumed)
T3 construct: In the assay the collagen was gelled and dried as a fibril film in microtiter wells; also called human collagen; Human Collagen Type I
Description: as §1, §2, §3

T2 sequence (P02454 152-1207 limits assumed, chain 1 of 2): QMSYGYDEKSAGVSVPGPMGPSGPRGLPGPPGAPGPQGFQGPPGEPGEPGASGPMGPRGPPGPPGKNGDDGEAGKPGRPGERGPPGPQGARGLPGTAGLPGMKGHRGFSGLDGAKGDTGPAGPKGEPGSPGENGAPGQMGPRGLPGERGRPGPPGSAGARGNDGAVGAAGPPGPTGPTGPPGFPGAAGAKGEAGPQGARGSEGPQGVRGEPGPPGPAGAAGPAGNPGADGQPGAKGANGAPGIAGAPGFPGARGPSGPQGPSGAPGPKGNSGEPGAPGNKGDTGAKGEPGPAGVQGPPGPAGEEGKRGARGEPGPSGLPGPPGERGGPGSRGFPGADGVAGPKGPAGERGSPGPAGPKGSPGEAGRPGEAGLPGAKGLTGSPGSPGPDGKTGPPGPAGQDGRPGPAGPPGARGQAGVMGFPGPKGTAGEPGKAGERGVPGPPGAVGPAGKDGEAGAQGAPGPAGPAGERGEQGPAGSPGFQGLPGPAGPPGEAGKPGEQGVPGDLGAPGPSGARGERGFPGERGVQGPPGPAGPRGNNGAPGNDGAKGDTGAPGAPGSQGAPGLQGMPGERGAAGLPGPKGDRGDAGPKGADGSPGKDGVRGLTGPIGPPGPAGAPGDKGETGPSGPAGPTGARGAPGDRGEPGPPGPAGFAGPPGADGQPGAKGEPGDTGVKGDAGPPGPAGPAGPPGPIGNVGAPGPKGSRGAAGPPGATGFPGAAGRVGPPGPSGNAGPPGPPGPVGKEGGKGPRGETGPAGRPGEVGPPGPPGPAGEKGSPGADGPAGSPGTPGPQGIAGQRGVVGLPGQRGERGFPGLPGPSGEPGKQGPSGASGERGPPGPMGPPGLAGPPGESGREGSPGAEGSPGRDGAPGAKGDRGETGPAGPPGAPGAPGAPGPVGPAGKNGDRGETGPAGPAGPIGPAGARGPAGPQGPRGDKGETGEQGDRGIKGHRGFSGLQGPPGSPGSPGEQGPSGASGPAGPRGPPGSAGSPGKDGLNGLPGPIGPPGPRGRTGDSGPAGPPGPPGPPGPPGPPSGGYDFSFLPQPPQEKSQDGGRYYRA
T2 sequence (P02466 86-1125 limits assumed, chain 2 of 2): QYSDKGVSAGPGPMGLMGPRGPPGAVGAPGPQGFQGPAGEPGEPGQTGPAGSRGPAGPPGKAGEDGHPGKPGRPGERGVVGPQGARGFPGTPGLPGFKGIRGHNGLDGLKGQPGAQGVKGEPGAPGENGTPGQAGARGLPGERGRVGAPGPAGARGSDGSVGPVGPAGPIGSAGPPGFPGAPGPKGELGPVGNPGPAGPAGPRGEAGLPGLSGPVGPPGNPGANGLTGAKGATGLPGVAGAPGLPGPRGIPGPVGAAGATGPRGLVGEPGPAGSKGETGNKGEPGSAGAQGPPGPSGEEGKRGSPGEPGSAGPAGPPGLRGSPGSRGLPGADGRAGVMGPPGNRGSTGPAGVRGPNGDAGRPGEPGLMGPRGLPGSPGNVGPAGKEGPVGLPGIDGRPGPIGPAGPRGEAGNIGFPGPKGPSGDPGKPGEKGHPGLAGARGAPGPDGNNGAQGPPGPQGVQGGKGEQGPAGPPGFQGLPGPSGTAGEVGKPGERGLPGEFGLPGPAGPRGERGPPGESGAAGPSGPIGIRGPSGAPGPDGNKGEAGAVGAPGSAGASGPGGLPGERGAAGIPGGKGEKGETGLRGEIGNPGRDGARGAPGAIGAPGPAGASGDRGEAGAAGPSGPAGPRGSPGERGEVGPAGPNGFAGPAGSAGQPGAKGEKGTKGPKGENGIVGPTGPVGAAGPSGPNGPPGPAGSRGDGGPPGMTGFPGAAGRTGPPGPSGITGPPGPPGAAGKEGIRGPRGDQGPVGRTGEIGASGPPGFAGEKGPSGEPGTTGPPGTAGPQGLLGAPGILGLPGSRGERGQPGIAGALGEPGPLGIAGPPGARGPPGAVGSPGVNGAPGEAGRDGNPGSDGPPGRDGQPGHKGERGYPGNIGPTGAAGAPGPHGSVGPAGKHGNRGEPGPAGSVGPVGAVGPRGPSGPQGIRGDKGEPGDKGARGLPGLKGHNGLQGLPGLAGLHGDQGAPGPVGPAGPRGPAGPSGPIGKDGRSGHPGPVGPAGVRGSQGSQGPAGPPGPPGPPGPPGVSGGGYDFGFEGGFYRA
T1 sequence (Q9XSJ7 158-1214, chain 1 of 2): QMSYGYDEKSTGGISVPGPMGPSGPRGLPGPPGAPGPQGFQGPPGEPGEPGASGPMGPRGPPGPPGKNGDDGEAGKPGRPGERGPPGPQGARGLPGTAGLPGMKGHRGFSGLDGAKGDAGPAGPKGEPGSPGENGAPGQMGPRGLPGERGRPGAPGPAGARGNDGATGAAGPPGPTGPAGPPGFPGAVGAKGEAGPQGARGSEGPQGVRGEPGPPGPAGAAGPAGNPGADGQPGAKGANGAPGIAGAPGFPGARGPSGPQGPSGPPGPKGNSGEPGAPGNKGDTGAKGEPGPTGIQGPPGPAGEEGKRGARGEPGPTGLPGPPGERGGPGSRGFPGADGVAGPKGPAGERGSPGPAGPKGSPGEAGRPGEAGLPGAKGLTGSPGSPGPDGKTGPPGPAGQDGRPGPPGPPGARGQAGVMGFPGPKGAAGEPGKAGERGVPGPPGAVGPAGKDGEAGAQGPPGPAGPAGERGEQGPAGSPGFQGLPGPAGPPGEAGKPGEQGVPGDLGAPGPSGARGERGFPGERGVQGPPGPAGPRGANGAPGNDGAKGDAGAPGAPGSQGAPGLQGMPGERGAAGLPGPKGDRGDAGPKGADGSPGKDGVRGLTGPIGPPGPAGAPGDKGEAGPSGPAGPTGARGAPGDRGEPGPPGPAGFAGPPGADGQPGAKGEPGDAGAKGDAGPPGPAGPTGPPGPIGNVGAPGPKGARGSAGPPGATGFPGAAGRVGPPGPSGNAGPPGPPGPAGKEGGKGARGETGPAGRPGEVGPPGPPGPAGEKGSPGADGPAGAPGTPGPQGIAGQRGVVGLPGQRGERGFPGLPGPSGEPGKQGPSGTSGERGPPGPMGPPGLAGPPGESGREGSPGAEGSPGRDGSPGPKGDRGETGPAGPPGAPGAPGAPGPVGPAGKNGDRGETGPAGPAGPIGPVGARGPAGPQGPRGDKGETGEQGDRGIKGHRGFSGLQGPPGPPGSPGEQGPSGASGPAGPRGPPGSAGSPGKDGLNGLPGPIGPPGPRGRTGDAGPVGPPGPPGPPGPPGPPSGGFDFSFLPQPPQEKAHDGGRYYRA
T1 sequence (O46392 80-1119, chain 2 of 2): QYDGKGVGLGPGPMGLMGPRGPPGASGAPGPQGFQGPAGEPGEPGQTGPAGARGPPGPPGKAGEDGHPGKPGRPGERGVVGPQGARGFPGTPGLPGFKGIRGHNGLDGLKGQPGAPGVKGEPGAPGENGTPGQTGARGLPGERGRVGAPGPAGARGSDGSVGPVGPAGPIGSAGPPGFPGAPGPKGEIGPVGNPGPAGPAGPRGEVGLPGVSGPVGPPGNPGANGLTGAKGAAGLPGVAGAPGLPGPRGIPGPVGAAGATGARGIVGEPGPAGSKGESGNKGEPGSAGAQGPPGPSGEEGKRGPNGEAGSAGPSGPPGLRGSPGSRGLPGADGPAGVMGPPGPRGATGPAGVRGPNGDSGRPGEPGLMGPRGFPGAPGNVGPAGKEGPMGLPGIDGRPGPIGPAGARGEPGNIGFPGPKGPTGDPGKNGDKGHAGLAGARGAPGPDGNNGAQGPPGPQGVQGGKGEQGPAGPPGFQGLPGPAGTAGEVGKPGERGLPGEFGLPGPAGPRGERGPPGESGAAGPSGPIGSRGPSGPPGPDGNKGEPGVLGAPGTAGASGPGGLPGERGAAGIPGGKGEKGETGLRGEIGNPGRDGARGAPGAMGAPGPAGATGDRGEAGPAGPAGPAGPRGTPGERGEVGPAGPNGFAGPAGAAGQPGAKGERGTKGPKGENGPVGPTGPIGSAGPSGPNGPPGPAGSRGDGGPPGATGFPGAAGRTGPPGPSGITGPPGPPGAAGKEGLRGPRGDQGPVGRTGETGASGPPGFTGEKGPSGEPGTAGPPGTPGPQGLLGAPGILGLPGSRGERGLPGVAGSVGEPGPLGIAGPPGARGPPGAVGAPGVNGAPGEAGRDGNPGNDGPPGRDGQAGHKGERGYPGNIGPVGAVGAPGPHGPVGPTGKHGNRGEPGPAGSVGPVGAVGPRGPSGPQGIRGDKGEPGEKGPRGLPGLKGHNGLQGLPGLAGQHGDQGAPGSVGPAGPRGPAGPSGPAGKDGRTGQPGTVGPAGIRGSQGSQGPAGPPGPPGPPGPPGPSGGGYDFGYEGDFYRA

B1: Compound ID No. 1 (peptide)
peptide: GKWHCTTKFPHHYCLY
modifications: Bip (L-4,4'-biphenylalanine) at position 17; C-terminal amide (NH2); cyclized through Cysteine-Cysteine disulfide bond (Cys5-Cys14); GdDOTAGA coupled by amide bonds to the primary amines (N-terminal amine and lysine epsilon amino groups)
notes: Tested as the Gd(III)-DOTAGA chelate conjugate of the cyclic peptide; also called CMPD ID 1; Comp ID No. 1
- Kd [1]: 4.4 µM
- Kd [2]: 21.1 µM
- Kd [3]: 3.8 µM

B2: Compound ID No. 4 (peptide)
peptide: KWHCYTKFPHHYCVY[Bip]-NH2
modifications: disulfide 4-13; not fully specified (residues 1, 7, N-terminus); printed as K-W-H-C-Y-T-K-F-P-H-H-Y-C-V-Y-Bip; also: GdDOTAGA on N-terminal amine or lysine epsilon amino groups
notes: Tested as the Gd(III)-DOTAGA chelate conjugate of the cyclic peptide; also called CMPD ID 4
- Kd [1]: 2 µM
- Kd [2]: 4.6 µM
- Kd [3]: 9.6 µM

B3: Compound ID No. 2 (peptide)
peptide: GdDOTAGA-K(GdDOTAGA)WHCTTK(GdDOTAGA)FPHHYCLY[Bip]-NH2
modifications: disulfide 4-13
notes: Tested as the Gd(III)-DOTAGA chelate conjugate of the cyclic peptide; also called CMPD ID 2
- Kd [1]: 4.9 µM
- Kd [2]: 20.6 µM
- Kd [3]: 4.9 µM

B4: Compound ID No. 3 (peptide)
peptide: GdDOTAGA-K(GdDOTAGA)YWHCTTK(GdDOTAGA)FPHHYCLY[Bip]-NH2
modifications: disulfide 5-14
notes: Tested as the Gd(III)-DOTAGA chelate conjugate of the cyclic peptide; also called CMPD ID 3
- Kd [3]: 29.8 µM

Reference: US20160375155A1 (COLLAGEN MEDICAL, published 2016)
